Data from the supplement of paper PMC11865577.

Experiments:
Assay in all cases: pull-down binding Z-score (relative to library population); higher = stronger binding
[1] = tested on: TO-3-N3-2 (biotin conjugate); conditions: RNA library: Library-2
Procedure, shortened: (§1)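 A heat-folded, dye-end-labelled (Cy5 or Cy3) RNA library (1 μg, phosphate/NaCl/KCl buffer) was exposed for 60 min at 25 °C to streptavidin beads holding 100 pmol of biotin-conjugated small molecule. RNA retained on the beads was eluted in hot SDS and hybridised to a DNA barcode microarray for 20 h at 55.5 °C. Binding scores were Z-scores against the library mean and standard deviation, calculated after subtracting beads alone and taking trimmed means of replicate probes.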

[2] = tested on: G-clamp-N3 (biotin conjugate); conditions: RNA library: Library-1 (pre-miRNA loops + repeats)
Procedure, shortened: as §1

[3] = tested on: TO-3-N3 (biotin conjugate); conditions: RNA library: Library-2
Procedure, shortened: as §1

[4] = tested on: TO-N3-2 (biotin conjugate); conditions: RNA library: Library-2
Procedure, shortened: as §1

TO-N3 (biotin conjugate) = conditions: RNA library: Library-2
Procedure, shortened: as §1

With UAGUACAGGUGAGAUUGUACUG [hsa-mir-3920] the “pull-down binding Z-score” value [1] was -0.323, the “pull-down binding Z-score” value [2] was 0.5 and the “pull-down binding Z-score” value [3] was -0.707. For the same sequence, the “pull-down binding Z-score” value [4] was -0.564 and the “pull-down binding Z-score” value (TO-N3 (biotin conjugate)) was -0.888.
For UAGUCUAAUAGGGACUA [hsa-mir-5681b], the “pull-down binding Z-score” value [1] was -0.0587, the “pull-down binding Z-score” value [2] was 2.76 and the “pull-down binding Z-score” value [3] was 0.02. The “pull-down binding Z-score” value [4] was -1.21 and the “pull-down binding Z-score” value (TO-N3 (biotin conjugate)) was -0.292.
UAGUGGAAAGAGCACUG [hsa-mir-378b] was tested, and the “pull-down binding Z-score” value [1] was -0.158, the “pull-down binding Z-score” value [2] was 1.15 and the “pull-down binding Z-score” value [3] was -0.39. The “pull-down binding Z-score” value [4] was -0.274 and the “pull-down binding Z-score” value (TO-N3 (biotin conjugate)) was -0.347.
In the case of “UAUAACUUGAAGAAUUCAAAUAGUCAUG [hsa-mir-3146]”, the “pull-down binding Z-score” value [1] was -0.34, the “pull-down binding Z-score” value [2] was -0.817 and the “pull-down binding Z-score” value [3] was -0.804. The “pull-down binding Z-score” value [4] was -0.75 and the “pull-down binding Z-score” value (TO-N3 (biotin conjugate)) was -1.06.
For “UAUAGCUACAUCAGUUAUAACUAUAUCAGUUAAA [hsa-mir-5582]”, the “pull-down binding Z-score” value [1] was 0.447, the “pull-down binding Z-score” value [2] was -1.59 and the “pull-down binding Z-score” value [3] was 1.67. The “pull-down binding Z-score” value [4] was 0.00457 and the “pull-down binding Z-score” value (TO-N3 (biotin conjugate)) was 1.57.
With UAUAGGAAGGAAAUCUUAU [hsa-mir-6129] the “pull-down binding Z-score” value [1] was -0.279, the “pull-down binding Z-score” value [2] was -0.636 and the “pull-down binding Z-score” value [3] was -0.671. The “pull-down binding Z-score” value [4] was -0.517 and the “pull-down binding Z-score” value (TO-N3 (biotin conjugate)) was -0.641.
“UAUAGUGUGUUUGAUUUGCACUGUA [hsa-mir-4703]” was tested, and the “pull-down binding Z-score” value [1] was -0.198, the “pull-down binding Z-score” value [2] was 0.116 and the “pull-down binding Z-score” value [3] was -0.156. For the same sequence, the “pull-down binding Z-score” value [4] was -1.07 and the “pull-down binding Z-score” value (TO-N3 (biotin conjugate)) was -0.424.
For “UAUAUACUGAUGUAAUUUUCCUUGGAUUUAUAUGCAGUACUGAG [hsa-mir-6130]”, the “pull-down binding Z-score” value [1] was 0.252, the “pull-down binding Z-score” value [2] was -0.931 and the “pull-down binding Z-score” value [3] was 0.00904. The “pull-down binding Z-score” value [4] was -0.225 and the “pull-down binding Z-score” value (TO-N3 (biotin conjugate)) was 0.102.
For “UAUAUGCUUUUUAAAUGGGGCACAGA [hsa-mir-5586]”, the “pull-down binding Z-score” value [1] was 0.0323, the “pull-down binding Z-score” value [2] was 2 and the “pull-down binding Z-score” value [3] was -0.275. For the same sequence, the “pull-down binding Z-score” value [4] was -0.177 and the “pull-down binding Z-score” value (TO-N3 (biotin conjugate)) was -0.26.
With “UAUAUUCGGUUUAUUGACAUGGAAUAUA [hsa-mir-381]” the “pull-down binding Z-score” value [1] was 0.106, the “pull-down binding Z-score” value [2] was 2.02 and the “pull-down binding Z-score” value [3] was 0.718. For the same sequence, the “pull-down binding Z-score” value [4] was -0.284 and the “pull-down binding Z-score” value (TO-N3 (biotin conjugate)) was 0.706.
UAUCUAUAUAUAUGUGUA [hsa-mir-3171] was tested, and the “pull-down binding Z-score” value [1] was -0.0303, the “pull-down binding Z-score” value [2] was -0.471 and the “pull-down binding Z-score” value [3] was -0.0511. For the same sequence, the “pull-down binding Z-score” value [4] was 0.835 and the “pull-down binding Z-score” value (TO-N3 (biotin conjugate)) was -0.0908.
In the case of UAUGAAGGUAAGCAUUUUUGUA [hsa-mir-3935], the “pull-down binding Z-score” value [1] was -0.263, the “pull-down binding Z-score” value [2] was -0.00708 and the “pull-down binding Z-score” value [3] was -0.615. The “pull-down binding Z-score” value [4] was -0.419 and the “pull-down binding Z-score” value (TO-N3 (biotin conjugate)) was -0.614.
In the case of “UAUGACCAGGCCAUAGUAAACAUCAUA [hsa-mir-4744]”, the “pull-down binding Z-score” value [1] was 0.312, the “pull-down binding Z-score” value [2] was 1.78 and the “pull-down binding Z-score” value [3] was -0.475. For the same sequence, the “pull-down binding Z-score” value [4] was -0.124 and the “pull-down binding Z-score” value (TO-N3 (biotin conjugate)) was -0.247.
“UAUGCAAAGCUCUGACAGUGUUUCACUUGCUA [hsa-mir-7848]” was tested, and the “pull-down binding Z-score” value [1] was -0.145, the “pull-down binding Z-score” value [2] was 0.148 and the “pull-down binding Z-score” value [3] was -0.489. For the same sequence, the “pull-down binding Z-score” value [4] was -0.0647 and the “pull-down binding Z-score” value (TO-N3 (biotin conjugate)) was -0.256.
With “UAUGCCAUUAAAAGUAAUGGUAAA [hsa-mir-548aj-1]” the “pull-down binding Z-score” value [1] was -0.508, the “pull-down binding Z-score” value [2] was -0.52 and the “pull-down binding Z-score” value [3] was -0.859. The “pull-down binding Z-score” value [4] was -1.2 and the “pull-down binding Z-score” value (TO-N3 (biotin conjugate)) was -1.23.
“UAUGCCUACAAAAUCCCUCCAGACUGGCAUA [hsa-mir-4666a]” was tested, and the “pull-down binding Z-score” value [1] was -0.346, the “pull-down binding Z-score” value [2] was -0.858 and the “pull-down binding Z-score” value [3] was -0.599. For the same sequence, the “pull-down binding Z-score” value [4] was -0.743 and the “pull-down binding Z-score” value (TO-N3 (biotin conjugate)) was -0.78.
“UAUGUGAUUCUACUGCUCACUCAUAUA [hsa-mir-135a-1]” was tested, and the “pull-down binding Z-score” value [1] was -0.191, the “pull-down binding Z-score” value [2] was -0.239 and the “pull-down binding Z-score” value [3] was 0.402. The “pull-down binding Z-score” value [4] was -0.519 and the “pull-down binding Z-score” value (TO-N3 (biotin conjugate)) was 0.212.
UAUUCGCUUUAUUGACUUCGAAUA [hsa-mir-369] was tested, and the “pull-down binding Z-score” value [1] was -0.144, the “pull-down binding Z-score” value [2] was -0.422 and the “pull-down binding Z-score” value [3] was -0.0221. The “pull-down binding Z-score” value [4] was -0.736 and the “pull-down binding Z-score” value (TO-N3 (biotin conjugate)) was -0.246.
In the case of UAUUCUCUAU [hsa-mir-2054], the “pull-down binding Z-score” value [1] was -0.276, the “pull-down binding Z-score” value [2] was -1.01 and the “pull-down binding Z-score” value [3] was 0.52. The “pull-down binding Z-score” value [4] was -0.297 and the “pull-down binding Z-score” value (TO-N3 (biotin conjugate)) was 0.367.
